What was measured:
human CCR8 [1] = biological target: T1, human CCR8 (human, UniProt P51685 1-355); experiment: cell-based or functional assay
human CCR8 [2] = biological target: T1, human CCR8; experiment: cell-based or functional assay; remark: listed apart in the source
human CCR8 [3] = biological target: T1, human CCR8; experiment: flow cytometry on mammalian cells expressing human CCR8

T1 sequence (P51685 whole entry): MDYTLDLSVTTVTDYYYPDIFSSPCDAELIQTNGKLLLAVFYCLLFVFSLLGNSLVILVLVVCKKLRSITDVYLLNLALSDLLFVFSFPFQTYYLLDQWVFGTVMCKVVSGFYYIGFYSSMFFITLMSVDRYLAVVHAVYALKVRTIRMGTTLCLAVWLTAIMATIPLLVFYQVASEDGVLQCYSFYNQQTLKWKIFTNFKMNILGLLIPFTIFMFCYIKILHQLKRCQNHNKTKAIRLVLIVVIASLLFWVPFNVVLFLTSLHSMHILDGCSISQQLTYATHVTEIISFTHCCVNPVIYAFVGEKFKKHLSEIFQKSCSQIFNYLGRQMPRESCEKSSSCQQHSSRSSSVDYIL

| Binder | EC50 of hCCR8-specific internalization (human CCR8 [1]) [µg/mL] | IC50 antagonism of EC80 Human CCL1 Gα15/16 Biosensor (human CCR8 [2]) [nM] | IC50 antagonism of EC80 Human CCL1 Gαz Biosensor (human CCR8 [2]) [nM] | MFI Fold over Background (human CCR8 [3]) [fold over background] |
| --- | --- | --- | --- | --- |
| ADI-40352 (antibody, V domains shown) VH: QLQLQESGPGLVKPSETLSLTCTVSGGSISSSSYAWGWIRQPPGKRLEWIGSIYYTGSTYYNPSLKSRVTISVDTSKNQFSLKLSSVTAADTAVYYCLRGHRRDYIAFDIWGQGTMVTVSS VL: DIQMTQSPSSLSASVGDRVTITCRASQSISSYLNWYQQKPGKAPKLLIYAASSLQSGVPSRFSGSGSGTDFTLTISSLQPEDFATYYCQQSHNLPTFGGGTKVEIK | 5.7 | 0.439 | 2.39 |  |
| ADI-35281 (antibody, V domains shown, Produced as IgG) VH: EVKLEQSGGGLVQPKGSLKLSCVASGFTFNAYAMNWVRQAPGQGLEWVARIRSKSNNYATYYAASVKDRFTISRDDSQSILYLQMNNLKTEDTAMYYCVRQSYGNSNYAMDYWGQGTTVTVSS VL: DIQLTQSPPSVPVTPGESVSISCRSSKSLLHSNGNTYLYWFLQRPGQSPQLLIYRKSNLASGVPDRFSGSGSGTAFTLRISRVEAEDVGVYYCMQHLEYPFTFGGGTKLEIK |  |  |  | 336 |
| ADI-40306 (antibody, V domains shown) VH: QVQLVESGGGVVQPGRSLRLSCAASGFTFSSYGMHWVRQAPGKGLEWVAVISYDGSNKYYAFSVKGRFTISRDNSKNTLYLQMNSLRVEDTAVYYCARVRRIAGRAGYGMDVWGQGTTVTVSS VL: not shown |  | 29.8 | 18.9 |  |

Now from value to binder:

| EC50 of hCCR8-specific internalization (human CCR8 [1]) [µg/mL] | IC50 antagonism of EC80 Human CCL1 Gα15/16 Biosensor (human CCR8 [2]) [nM] | IC50 antagonism of EC80 Human CCL1 Gαz Biosensor (human CCR8 [2]) [nM] | MFI Fold over Background (human CCR8 [3]) [fold over background] | Binder |
| --- | --- | --- | --- | --- |
| 2.8 | 1.78 | 1.14 |  | ADI-40360 (antibody, V domains shown) VH: QLQLQESGPGLVKPSETLSLTCTVSGGSISSSSYAWGWIRQPPGKRLEWIGSIYYTGSTYYNPSLKSRVTISVDTSKNQFSLKLSSVTAADTAVYYCVRGHRRDYIAFDIWGQGTMVTVSS VL: DIQMTQSPSSLSASVGDRVTITCRASQSISSYLNWYQQKPGKAPKLLIYAASSLQSGVPSRFSGSGSGTDFTLTISSLQPEDFATYYCQQSHNLPTFGGGTKVEIK |
|  | 1.26 | 1.79 |  | ADI-46663 (antibody, V domains shown) VH: EVQLVESGGGLVQPGGSLRLSCAASGFTFNAYAMNWVRQAPGKGLEWVARIRSKSNNYATYYADSVKDRFTISRDDSKNSLYLQMNSLKTEDTAVYYCVRQSYGNSNYAMDYWGQGTTVTVSS VL: DIVMTQSPLSLPVTPGEPASISCRSSKSLLHSNGNTYLYWYLQKPGQSPQLLIYRMSNLASGVPDRFSGSGSGTDFTLKISRVEAEDVGVYYCMQHLEYPFTFGGGTKVEIK |
| 14.3 | 4.61 | 5.46 |  | ADI-40327 (antibody, V domains shown) VH: QVQLQESGPGLVKPSETLSLTCAVSGYSISSGYYWGWIRQPPGKGLEWIGSIYHSGNTYYRPSLKSRVTISVDTSKNQFSLKLSSVTAADTAVYYCARGKGGSWTAFGPWGQGTLVTVSS VL: DIQMTQSPSSLSASVGDRVTITCRASQSISSFLNWYQQKPGKAPKLLISAASSLQSGVPSRFSGSGSGTDFTLTISSLQPEDFATYYCQQGHSTPPTFGGGTKVEIK |
